Experimental data as given in patent US9512459B2 (priority 2011, dated 2016).
Numbering of substitutions follows the chain as printed. In names and notes the source's numbering stands.

B1: Aspergillus niger glucose dehydrogenase (FAD-GDH) Ang-n2 variant T522S, SEQ ID NO: 2 (Aspergillus niger CBS 513.88; T522S) (protein)
chain: YDFVIVGGGTSGLVVANRLSELSDVTVAVIEAGESALNNFNVSNVMGYSTAFGTEVDWAYQTENQTYAGGLQQTIRAGKALGGTSTINGMSYTRAEDVQIDNWEVLGNDGWNWKNLFQYYKKSEGFQVPTKDQIAHGASYNASYHGLNGPLKVGWPNSMTNSSVFPVLEQTFEKLGVQYNPDSEGGKMVGFTVHPDTLDREMNVREDAARAYYWPYEARSNLKIISNTRANKVIWANTTQGEAVAVGIEVTNAYGTETIYADKEVILSAGALRSPAILELSGIGNPDVLNKHNIPVKVNITTVGENLQDQTNNALSWEGVDTLTGLATFSVLPSVNQLYGDNVTALASYVKSQLASYAKTVASASNGAVKEANLVEAFERQYDLIFNSQVPYTEVVFAPSGNSFAVEYWPLLPFSRGSVHIQSANASDYPAINPNYFMFDQDAEAQVTVAQYIRKALGTAPLNSLVGEEVSPGLDVLPASASSATWTKWVKENYRSNYHPVGTTSMLPREKGGVVSPELKVYGTKNVRVVDASVLPFQLCGHLTSTLYAVAERASDLIKESY
notes: pET30c, E. coli BL21(DE3), crude extract
B2: Aspergillus niger glucose dehydrogenase (FAD-GDH) Ang-n2 variant N368K/T522S, SEQ ID NO: 2 (Aspergillus niger CBS 513.88; N368K/T522S) (protein)
chain: B1 chain with N342K
notes: as for B1
B3: Aspergillus niger glucose dehydrogenase (FAD-GDH) Ang-n2 variant E195K/Q196D, SEQ ID NO: 2 (Aspergillus niger CBS 513.88; E195K/Q196D) (protein)
chain: B1 chain with E169K, Q170D, S496T
notes: as for B1
B4: Aspergillus niger glucose dehydrogenase (FAD-GDH) Ang-n2 variant E195K/Q196R, SEQ ID NO: 2 (Aspergillus niger CBS 513.88; E195K/Q196R) (protein)
chain: B1 chain with E169K, Q170R, S496T
notes: as for B1
B5: Aspergillus niger glucose dehydrogenase (FAD-GDH) Ang-n2 variant E195K/Q196E/N368K/T522S, SEQ ID NO: 2 (Aspergillus niger CBS 513.88; E195K/N368K/Q196E/T522S) (protein)
chain: B1 chain with E169K, Q170E, N342K
notes: as for B1
B6: Aspergillus niger glucose dehydrogenase (FAD-GDH) Ang-n3, SEQ ID NO: 2 (26 N-terminal residues deleted, Met-Asn-Thr-Thr-Thr- added) (Aspergillus niger CBS … (protein)
chain: B1 chain with S496T
notes: otherwise wild type; pET30c, E. coli BL21(DE3), dialysed crude enzyme
B7: Aspergillus niger glucose dehydrogenase (FAD-GDH) Ang-n3 variant E195K/Q196E, SEQ ID NO: 2 (Aspergillus niger CBS 513.88; E195K/Q196E) (protein)
chain: B1 chain with E169K, Q170E, S496T
notes: pET30c, E. coli BL21(DE3), dialysed crude enzyme
B8: Aspergillus niger glucose dehydrogenase (FAD-GDH) Ang-n1, wild type, SEQ ID NO: 2 (20 N-terminal residues deleted, Ala21 substituted by Met) (Aspergillus niger … (protein)
chain: MDSPAHYDFVIVGGGTSGLVVANRLSELSDVTVAVIEAGESALNNFNVSNVMGYSTAFGTEVDWAYQTENQTYAGGLQQTIRAGKALGGTSTINGMSYTRAEDVQIDNWEVLGNDGWNWKNLFQYYKKSEGFQVPTKDQIAHGASYNASYHGLNGPLKVGWPNSMTNSSVFPVLEQTFEKLGVQYNPDSEGGKMVGFTVHPDTLDREMNVREDAARAYYWPYEARSNLKIISNTRANKVIWANTTQGEAVAVGIEVTNAYGTETIYADKEVILSAGALRSPAILELSGIGNPDVLNKHNIPVKVNITTVGENLQDQTNNALSWEGVDTLTGLATFSVLPSVNQLYGDNVTALASYVKSQLASYAKTVASASNGAVKEANLVEAFERQYDLIFNSQVPYTEVVFAPSGNSFAVEYWPLLPFSRGSVHIQSANASDYPAINPNYFMFDQDAEAQVTVAQYIRKALGTAPLNSLVGEEVSPGLDVLPASASSATWTKWVKENYRTNYHPVGTTSMLPREKGGVVSPELKVYGTKNVRVVDASVLPFQLCGHLTSTLYAVAERASDLIKESY
B9: Aspergillus niger glucose dehydrogenase (FAD-GDH) Ang-n1 variant E195K/Q196E, SEQ ID NO: 2 (Aspergillus niger CBS 513.88; E195K/Q196E) (protein)
chain: B8 chain with E175K, Q176E
notes: as for B1
B10: Aspergillus niger glucose dehydrogenase (FAD-GDH) Ang-n2 variant N368K, SEQ ID NO: 2 (Aspergillus niger CBS 513.88; N368K) (protein)
chain: B1 chain with N342K, S496T
notes: as for B1
B11: Aspergillus niger glucose dehydrogenase (FAD-GDH) Ang-n2 variant E195K/Q196E/G73A, SEQ ID NO: 2 (Aspergillus niger CBS 513.88; E195K/G73A/Q196E) (protein)
chain: B1 chain with G47A, E169K, Q170E, S496T
notes: E. coli BL21(DE3), crude extract, small-scale culture

Assays:
[1] = substrate: OC[C@H]1OC(O)[C@H](O)[C@@H](O)[C@@H]1O; assay: cells, lysate or membranes named; type: biochemical, Aspergillus niger; details: crude enzyme, glucose 1-40 mM, pH 6.5, DCIP/PMS
[2] = substrate: OC[C@H]1OC(O)[C@H](O)[C@@H](O)[C@@H]1O; assay: cells, lysate or membranes named; details: other: 60 ml culture, crude enzyme, glucose 1-40 mM, pH 6.5, DCIP/PMS, 20.0 °C

| Protein | Km ([1]; other: 60 ml culture, 20.0 °C) [mM] | Vmax ([1]; other: 60 ml culture, 20.0 °C) [µmol/min/mg] | Km [2] [mM] | Km ([1]; other: 3 ml culture) [mM] | Vmax ([1]; other: 3 ml culture) [U/mg protein] |
| --- | --- | --- | --- | --- | --- |
| B1 | 2.5 | 3.4 | – | – | – |
| B2 | 3.4 | 5.3 | – | – | – |
| B3 | 2.9 | 5.1 | – | – | – |
| B4 | 2.5 | 4.3 | – | – | – |
| B5 | 3.2 | 6.1 | – | – | – |
| B6 | 3.7 | 0.7 | – | – | – |
| B7 | 2.2 | 4.5 | – | – | – |
| B8 | – | – | 3.6 | – | – |
| B9 | 2.8 | 2.5 | – | – | – |
| B10 | 4.6 | 0.7 | – | – | – |
| B11 | – | – | – | 5.5 | 5.0 |
